From paper PMC10524338 (Structure (London, England : 1993), 2023)
Where a chain is given by its changes, count along the chain named. Names may count otherwise.

T1: GST-Kapβ2 (UniProt Q92973-2 1-890)
T1 sequence (looked up): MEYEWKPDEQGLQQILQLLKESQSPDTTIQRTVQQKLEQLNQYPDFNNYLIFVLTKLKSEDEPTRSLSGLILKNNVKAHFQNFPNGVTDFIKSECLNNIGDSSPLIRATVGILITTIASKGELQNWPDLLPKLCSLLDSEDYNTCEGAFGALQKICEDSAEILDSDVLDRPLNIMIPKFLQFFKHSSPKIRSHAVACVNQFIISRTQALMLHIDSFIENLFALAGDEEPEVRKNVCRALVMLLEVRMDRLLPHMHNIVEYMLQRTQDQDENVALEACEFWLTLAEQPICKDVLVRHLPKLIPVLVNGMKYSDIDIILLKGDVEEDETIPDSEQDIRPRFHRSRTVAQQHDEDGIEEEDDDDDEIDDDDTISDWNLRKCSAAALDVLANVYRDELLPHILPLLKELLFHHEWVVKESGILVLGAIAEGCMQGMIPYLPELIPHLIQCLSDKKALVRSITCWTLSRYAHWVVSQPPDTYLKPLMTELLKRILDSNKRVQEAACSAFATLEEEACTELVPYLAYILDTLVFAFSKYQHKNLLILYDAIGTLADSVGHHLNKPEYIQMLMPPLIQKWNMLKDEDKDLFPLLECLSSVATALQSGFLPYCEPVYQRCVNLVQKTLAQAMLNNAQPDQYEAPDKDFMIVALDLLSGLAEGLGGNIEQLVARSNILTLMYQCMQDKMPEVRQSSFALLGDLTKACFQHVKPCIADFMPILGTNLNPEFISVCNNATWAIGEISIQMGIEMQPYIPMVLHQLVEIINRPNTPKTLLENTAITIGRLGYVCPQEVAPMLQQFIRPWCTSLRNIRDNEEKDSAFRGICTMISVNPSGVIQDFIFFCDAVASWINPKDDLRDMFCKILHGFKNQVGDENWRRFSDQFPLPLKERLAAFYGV

T2: Karyopherin-β2 (Kapβ2), wild type, GST tag removed (UniProt Q92973-2 1-890)
T2 sequence (looked up): T1 sequence (looked up)

T3: Kapβ2(W373A), GST tag removed (UniProt Q92973-2 1-890, W373A)
T3 sequence (looked up): T1 sequence (looked up) with W373A

B1: MBP-HNRNPH2(103-225) P213A (domain or fragment, UniProt P55795 103-225, looked up)
chain: NSPDTANDGFVRLRGLPFGCSKEEIVQFFSGLEIVPNGMTLPVDFQGRSTGEAFVQFASQEIAEKALKKHKERIGHRYIEIFKSSRAEVRTHYDPPRKLMAMQRPGPYDRAGAGRGYNSIGRG
B2: MBP-HNRNPH2(103-225) R212K (domain or fragment, UniProt P55795 103-225, looked up)
chain: B1 chain with R110K, A111P
B3: HNRNPH2(103-225) as in the cryo-EM sample (domain or fragment, UniProt P55795 103-225, looked up)
chain: B1 chain with A111P
modifications: mildly cross-linked to Kapβ2 with 0.025% glutaraldehyde
B4: MBP-HNRNPH2(103-225) WT (domain or fragment, UniProt P55795 103-225, looked up)
chain: B1 chain with A111P
B5: MBP-HNRNPH2(103-225) R212A (domain or fragment, UniProt P55795 103-225, looked up)
chain: B1 chain with R110A, A111P
B6: MBP-HNRNPH2(103-225) P209L (domain or fragment, UniProt P55795 103-225, looked up)
chain: B1 chain with P107L, A111P
B7: MBP-HNRNPH2(103-225) R206Q (domain or fragment, UniProt P55795 103-225, looked up)
chain: B1 chain with R104Q, A111P
B8: MBP-HNRNPH2(103-225) R206W (domain or fragment, UniProt P55795 103-225, looked up)
chain: B1 chain with R104W, A111P

These binders were tested against T1, GST-Kapβ2 (assay: pull-down).

B1: binds.
B2: binds.

These binders were tested against T2, Karyopherin-β2 (Kapβ2), wild type, GST … (assay: cryo-EM structure).

B3: binds.

What follows are binders tested against T2, Karyopherin-β2 (Kapβ2), wild type, GST … (assay: ITC).

Compared with ERPAQNEKRKEKNIKRGGNRFEPYANPTKR (domain or fragment, UniProt P52272 41-70, looked up) [MBP-HNRNPM PY-NLS (41-70)], B4 is 5.6-fold higher in Kd: 0.009 µM for the first, 0.05 µM for the second.

Compared with B5, B6 is 5.1-fold higher in Kd: 3.2 µM for the first, 16.3 µM for the second.

B7 and B8 are within 1.5-fold of each other in Kd: 3.6 µM for the first, 5.2 µM for the second.

Binder EVRTHYDPPRKLMAMQRPGPYDRPGAGRGYNSIGRG (domain or fragment, UniProt P55795 190-225, looked up) [MBP-HNRNPH2 PY-NLS (190-225)] has a Kd of 0.04 µM.

These binders were tested against T3, Kapβ2(W373A), GST tag removed (assay: ITC).

First: ERPAQNEKRKEKNIKRGGNRFEPYANPTKR (domain or fragment, UniProt P52272 41-70, looked up) [MBP-HNRNPM PY-NLS (41-70)]
Second: B4
The Kd of the first is 1400-fold lower: 0.0045 µM for the first, 6.1 µM for the second. The first binds more tightly here.
